# Laboratory results published in IntAct's records for PubMed 31515488.
# B1: Transcription factor 12 (Homo sapiens), Q99081-3 (parent)
# chain: MNPQQQRMAAIGTDKELSDLLDFSAMFSPPVNSGKTRPTTLGSSQFSGSGIDERGGTTSWGTSGQPSPSYDSSRGFTDSPHYSDHLNDSRLGAHEGLSPTPFMNSNLMGKTSERGSFSLYSRDTGLPGCQSSLLRQDLGLGSPAQLSSSGKPGTAYYSFSATSSRRRPLHDSAALDPLQAKKVRKVPPGLPSSVYAPSPNSDDFNRESPSYPSPKPPTSMFASTFFMQDGTHNSSDLWSSSNGMSQPGFGGILGTSTSHMSQSSSYGNLHSHDRLSYPPHSVSPTDINTSLPPMSSFHRGSTSSSPYVAASHTPPINGSDSILGTRGNAAGSSQTGDALGKALASIYSPDHTSSSFPSNPSTPVGSPSPLTGTSQWPRPGGQAPSSPSYENSLHSLKNRVEQQLHEHLQDAMSFLKDVCEQSRMEDRLDRLDDAIHVLRNHAVGPSTSLPAGHSDIHSLLGPSHNAPIGSLNSNYGGSSLVASSRSASMVGTHREDSVSLNGNHSVLSSTVTTSSTDLNHKTQENYRGGLQSQSGTVVTTEIKTENKEKDENLHEPPSSDDMKSDDESSQKDIKVSSRGRTSSTNEDEDLNPEQKIEREKERRMANNARERLRVRDINEAFKELGRMCQLHLKSEKPQTKLLILHQAVAVILSLEQQVRERNLNPKAACLKRREEEKVSAVSAEPPTTLPGTHPGLSETTNPMGHM
# partner: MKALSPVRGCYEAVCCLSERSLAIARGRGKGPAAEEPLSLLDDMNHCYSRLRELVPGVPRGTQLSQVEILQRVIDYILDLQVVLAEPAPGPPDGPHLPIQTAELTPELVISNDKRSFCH
# B2: Proto-oncogene serine/threonine-protein kinase mos (Homo sapiens), P00540 (parent)
# chain: MPSPLALRPYLRSEFSPSVDARPCSSPSELPAKLLLGATLPRAPRLPRRLAWCSIDWEQVCLLQRLGAGGFGSVYKATYRGVPVAIKQVNKCTKNRLASRRSFWAELNVARLRHDNIVRVVAASTRTPAGSNSLGTIIMEFGGNVTLHQVIYGAAGHPEGDAGEPHCRTGGQLSLGKCLKYSLDVVNGLLFLHSQSIVHLDLKPANILISEQDVCKISDFGCSEKLEDLLCFQTPSYPLGGTYTHRAPELLKGEGVTPKADIYSFAITLWQMTTKQAPYSGERQHILYAVVAYDLRPSLSAAVFEDSLPGQRLGDVIQRCWRPSAAQRPSARLLLVDLTSLKAELG
# partner: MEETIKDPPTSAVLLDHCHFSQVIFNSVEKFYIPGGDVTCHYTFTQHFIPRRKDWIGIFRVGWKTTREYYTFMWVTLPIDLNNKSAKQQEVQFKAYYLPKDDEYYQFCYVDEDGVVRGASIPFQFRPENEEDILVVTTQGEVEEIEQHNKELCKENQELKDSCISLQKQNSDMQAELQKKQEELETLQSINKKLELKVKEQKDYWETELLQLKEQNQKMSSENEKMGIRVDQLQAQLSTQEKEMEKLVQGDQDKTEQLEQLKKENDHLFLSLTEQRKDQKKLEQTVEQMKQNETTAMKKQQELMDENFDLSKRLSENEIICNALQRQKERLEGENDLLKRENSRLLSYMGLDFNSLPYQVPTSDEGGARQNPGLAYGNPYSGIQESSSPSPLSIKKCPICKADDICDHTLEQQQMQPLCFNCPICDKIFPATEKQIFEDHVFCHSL
# B3: Nuclear protein AMMECR1 (Homo sapiens), Q9Y4X0 (parent)
# chain: MAAGCCGVKKQKLSSSPPSGSGGGGGASSSSHCSGESQCRAGELGLGGAGTRLNGLGGLTGGGSGSGCTLSPPQGCGGGGGGIALSPPPSCGVGTLLSTPAAATSSSPSSSSAASSSSPGSRKMVVSAEMCCFCFDVLYCHLYGYQQPRTPRFTNEPYPLFVTWKIGRDKRLRGCIGTFSAMNLHSGLREYTLTSALKDSRFPPMTRDELPRLFCSVSLLTNFEDVCDYLDWEVGVHGIRIEFINEKGSKRTATYLPEVAKEQGWDHIQTIDSLLRKGGYKAPITNEFRKTIKLTRYRSEKMTLSYAEYLAHRQHHHFQNGIGHPLPPYNHYS
# partner: B2 partner
# B4: Centrin-1 (Homo sapiens), Q12798 (parent)
# chain: MASGFKKPSAASTGQKRKVAPKPELTEDQKQEVREAFDLFDVDGSGTIDAKELKVAMRALGFEPRKEEMKKMISEVDREGTGKISFNDFLAVMTQKMSEKDTKEEILKAFRLFDDDETGKISFKNLKRVANELGENLTDEELQEMIDEADRDGDGEVNEEEFLRIMKKTSLY
# partner: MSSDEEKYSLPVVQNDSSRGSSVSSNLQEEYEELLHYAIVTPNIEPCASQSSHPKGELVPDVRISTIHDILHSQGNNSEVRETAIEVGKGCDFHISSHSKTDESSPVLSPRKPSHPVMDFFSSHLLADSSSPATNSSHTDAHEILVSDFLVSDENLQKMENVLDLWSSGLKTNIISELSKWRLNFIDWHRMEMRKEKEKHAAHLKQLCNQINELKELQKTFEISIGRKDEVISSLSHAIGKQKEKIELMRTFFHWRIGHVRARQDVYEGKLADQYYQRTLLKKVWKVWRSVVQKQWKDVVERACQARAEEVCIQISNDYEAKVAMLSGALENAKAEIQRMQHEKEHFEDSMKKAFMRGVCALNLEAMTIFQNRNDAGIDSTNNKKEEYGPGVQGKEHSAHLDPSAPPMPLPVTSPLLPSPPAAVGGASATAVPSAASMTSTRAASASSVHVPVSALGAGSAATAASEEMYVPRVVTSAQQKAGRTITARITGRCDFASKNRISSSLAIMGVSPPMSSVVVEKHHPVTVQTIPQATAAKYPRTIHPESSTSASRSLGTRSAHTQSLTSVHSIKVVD
# B5: Cysteine-rich C-terminal protein 1 (Homo sapiens), Q9UGL9 (parent)
# chain: MSSQQSAVSAKGFSKGSSQGPAPCPAPAPTPAPASSSSCCGSGRGCCGDSGCCGSSSTSCCCFPRRRRRQRSSGCCCCGGGSQRSQRSNNRSSGCCSGC
# B6: Filamin-binding LIM protein 1 (Homo sapiens), Q8WUP2 (parent)
# chain: MASKPEKRVASSVFITLAPPRRDVAVAEEVRQAVCEARRGRPWEAPAPMKTPEAGLAGRPSPWTTPGRAAATVPAAPMQLFNGGCPPPPPVLDGEDVLPDLDLLPPPPPPPPVLLPSEEEAPAPMGASLIADLEQLHLSPPPPPPQAPAEGPSVQPGPLRPMEEELPPPPAEPVEKGASTDICAFCHKTVSPRELAVEAMKRQYHAQCFTCRTCRRQLAGQSFYQKDGRPLCEPCYQDTLERCGKCGEVVRDHIIRALGQAFHPSCFTCVTCARCIGDESFALGSQNEVYCLDDFYRKFAPVCSICENPIIPRDGKDAFKIECMGRNFHENCYRCEDCRILLSVEPTDQGCYPLNNHLFCKPCHVKRSAAGCC
# partner: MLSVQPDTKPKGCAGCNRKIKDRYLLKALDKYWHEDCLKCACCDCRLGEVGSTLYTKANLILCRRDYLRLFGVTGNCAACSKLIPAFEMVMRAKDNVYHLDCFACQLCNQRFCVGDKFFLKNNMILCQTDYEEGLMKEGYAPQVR
# B7: Transmembrane protein 79 (Homo sapiens), Q9BSE2 (parent)
# chain: MTEQETLALLEVKRSDSPEKSSPQALVPNGRQPEGEGGAESPGAESLRVGSSAGSPTAIEGAEDGLDSTVSEAATLPWGTGPQPSAPFPDPPGWRDIEPEPPESEPLTKLEELPEDDANLLPEKAARAFVPIDLQCIERQPQEDLIVRCEAGEGECRTFMPPRVTHPDPTERKWAEAVVRPPGCSCGGCGSCGDREWLRAVASVGAALILFPCLLYGAYAFLPFDVPRLPTMSSRLIYTLRCGVFATFPIVLGILVYGLSLLCFSALRPFGEPRREVEIHRRYVAQSVQLFILYFFNLAVLSTYLPQDTLKLLPLLTGLFAVSRLIYWLTFAVGRSFRGFGYGLTFLPLLSMLMWNLYYMFVVEPERMLTATESRLDYPDHARSASDYRPRPWG
# Variants of: B1
# Conditions: with id3_human ID3, Q02535
row,Variant,effect of a mutation on the interaction
1,Y120C,with no effect
2,N606H,with no effect
3,A482V,with no effect
4,S446F,with no effect
5,A155T,with no effect

# Variants of: B2
# Conditions: with caco2_human CALCOCO2, Q13137
row,Variant,effect of a mutation on the interaction
1,A123T,disrupting interaction strength
2,A105S,with no effect

# Variants of: B3
# Conditions: with caco2_human CALCOCO2, Q13137
row,Variant,effect of a mutation on the interaction
1,R207G,disrupting interaction strength

# Variants of: B4
# Conditions: with poc5_human POC5, Q8NA72
row,Variant,effect of a mutation on the interaction
1,M72T,with no effect

# Variants of: B5
# Conditions: with nt2na_human NOTCH2NLA
row,Variant,effect of a mutation on the interaction
1,G20S,with no effect

# Variants of: B6
# Conditions: with lmo3_human LMO3, Q8TAP4
row,Variant,effect of a mutation on the interaction
1,V174I,with no effect
2,E233K,with no effect

# Variants of: B6
# Conditions: with lmo3_human LMO3, Q8TAP4
# Remark: another data set of the same source
row,Variant,effect of a mutation on the interaction
1,Y204C,disrupting interaction strength

# Variants of: B7
# Conditions: with pspc_human SFTPC
row,Variant,effect of a mutation on the interaction
1,V147M,with no effect
2,S104T,with no effect

# Variants of: B7
# Conditions: with sarco_human SLN
row,Variant,effect of a mutation on the interaction
1,V147M,with no effect
2,S104T,with no effect

# Variants of: B7
# Conditions: with sc22a_human SEC22A
row,Variant,effect of a mutation on the interaction
1,V147M,with no effect
2,S104T,with no effect

# Variants of: B7
# Conditions: with tx264_human TEX264, Q9Y6I9
# Sequence of tx264_human TEX264, Q9Y6I9 (Q9Y6I9 whole entry): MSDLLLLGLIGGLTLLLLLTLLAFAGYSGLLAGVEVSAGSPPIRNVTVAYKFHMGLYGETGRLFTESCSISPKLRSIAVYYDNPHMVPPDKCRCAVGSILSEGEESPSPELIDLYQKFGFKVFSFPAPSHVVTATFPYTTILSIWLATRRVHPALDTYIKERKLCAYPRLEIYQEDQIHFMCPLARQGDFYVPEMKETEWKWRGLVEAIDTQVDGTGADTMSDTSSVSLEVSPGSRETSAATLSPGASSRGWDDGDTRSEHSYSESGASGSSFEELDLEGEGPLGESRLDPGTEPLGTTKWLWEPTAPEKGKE
row,Variant,effect of a mutation on the interaction
1,V147M,with no effect
2,S104T,with no effect

# Variants of: B7
# Conditions: with tnmd_human TNMD
row,Variant,effect of a mutation on the interaction
1,V322I,with no effect
